Measurements reported in publication PMC5927468, “A noncanonical role for dynamin-1 in regulating early stages of clathrin-mediated endocytosis in non-neuronal cells” (PLoS Biology, 2018).
Residue numbers refer to the chain shown, from its start.

Columns and labels:
Dyn1a^WT-eGFP = biological target: T1, Dyn1a^WT-eGFP (UniProt Q05193 1-864); test: co-IP; GFP-nAb agarose, 0.5 mg A549 post-nuclear fraction, 2 h at 4 °C; beads washed with buffer 3 (0.5% Triton X-100, 25 mM HEPES, 150 mM KCl, 1 mM MgCl2, 2 mM EGTA, pH 7.4); immunoblot; conditions: partners not purified
T1 construct: dynamin-1 cDNA, C-terminal splice variant "a" (Dyn1a), in the retroviral vector pMIEG; also called Dyn1a-eGFP; Dyn1-eGFP; source: A549 Dyn1^KO cells, retroviral transduction, in lysate (post-nuclear fraction); not shown: eGFP, C-terminal, kept
T1 sequence (looked up): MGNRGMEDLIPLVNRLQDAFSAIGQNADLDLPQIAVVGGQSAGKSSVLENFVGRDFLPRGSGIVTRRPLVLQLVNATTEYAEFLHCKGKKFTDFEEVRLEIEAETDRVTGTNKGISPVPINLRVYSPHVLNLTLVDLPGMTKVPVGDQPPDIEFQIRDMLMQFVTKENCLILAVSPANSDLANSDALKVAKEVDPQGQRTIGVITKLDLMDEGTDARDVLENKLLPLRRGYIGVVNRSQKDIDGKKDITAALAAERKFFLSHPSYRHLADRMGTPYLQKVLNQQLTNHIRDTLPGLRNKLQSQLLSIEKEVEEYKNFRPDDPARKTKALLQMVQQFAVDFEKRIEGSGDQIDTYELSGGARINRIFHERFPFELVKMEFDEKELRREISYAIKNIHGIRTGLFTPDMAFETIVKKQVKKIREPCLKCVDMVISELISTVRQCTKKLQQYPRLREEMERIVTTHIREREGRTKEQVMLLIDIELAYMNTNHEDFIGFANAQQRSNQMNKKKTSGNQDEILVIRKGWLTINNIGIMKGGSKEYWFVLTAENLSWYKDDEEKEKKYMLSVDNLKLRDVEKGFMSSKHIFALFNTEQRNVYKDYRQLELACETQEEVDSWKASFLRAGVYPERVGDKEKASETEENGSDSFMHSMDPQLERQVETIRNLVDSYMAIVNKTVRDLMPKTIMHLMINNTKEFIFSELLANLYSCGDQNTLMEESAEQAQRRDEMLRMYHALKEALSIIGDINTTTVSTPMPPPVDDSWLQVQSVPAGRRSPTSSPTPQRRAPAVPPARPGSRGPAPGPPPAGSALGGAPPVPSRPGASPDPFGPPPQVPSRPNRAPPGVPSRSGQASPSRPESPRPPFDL

Dyn1a^S774/8A-eGFP = biological target: T2, Dyn1a^S774/8A-eGFP (UniProt Q05193 1-864, S774/8A | S774/8A); test: as above; conditions: partners not purified
T2 construct: dynamin-1 cDNA, C-terminal splice variant "a" (Dyn1a), in the retroviral vector pMIEG, with S774 and S778 changed to alanine; also called Dyn1^S774/8A-eGFP; Dyn1^S774/8A; source: A549 Dyn1^KO cells, retroviral transduction, in lysate (post-nuclear fraction); not shown: eGFP, C-terminal, kept
T2 sequence (looked up): T1 sequence (looked up) with S774A, S778A

ratio of SNX9 binding to Dyn1 versus Dyn2 (Dyn1a^WT-eGFP): 1.7 | ratio of SNX9 binding to Dyn1^S774/8A versus Dyn1^WT (Dyn1a^S774/8A-eGFP): 3.6
B1: sorting nexin 9, endogenous in A549 cells (natural protein, human (endogenous in A549), UniProt Q9Y5X1 1-595, looked up)
chain: MATKARVMYDFAAEPGNNELTVNEGEIITITNPDVGGGWLEGRNIKGERGLVPTDYVEILPSDGKDQFSCGNSVADQAFLDSLSASTAQASSSAASNNHQVGSGNDPWSAWSASKSGNWESSEGWGAQPEGAGAQRNTNTPNNWDTAFGHPQAYQGPATGDDDDWDEDWDGPKSSSYFKDSESADAGGAQRGNSRASSSSMKIPLNKFPGFAKPGTEQYLLAKQLAKPKEKIPIIVGDYGPMWVYPTSTFDCVVADPRKGSKMYGLKSYIEYQLTPTNTNRSVNHRYKHFDWLYERLLVKFGSAIPIPSLPDKQVTGRFEEEFIKMRMERLQAWMTRMCRHPVISESEVFQQFLNFRDEKEWKTGKRKAERDELAGVMIFSTMEPEAPDLDLVEIEQKCEAVGKFTKAMDDGVKELLTVGQEHWKRCTGPLPKEYQKIGKALQSLATVFSSSGYQGETDLNDAITEAGKTYEEIASLVAEQPKKDLHFLMECNHEYKGFLGCFPDIIGTHKGAIEKVKESDKLVATSKITLQDKQNMVKRVSIMSYALQAEMNHFHSNRIYDYNSVIRLYLEQQVQFYETIAEKLRQALSRFPVM
notes: sorting nexin 9, endogenous; also called SNX9; source: endogenous, A549 (Dyn1^KO or Dyn2^KO, reconstituted) lysate
